In IntAct's records for PubMed 31515488:

B1: Phospholipid scramblase 4 (Homo sapiens), Q9NRQ2 (parent)
chain: MSGVVPTAPEQPAGEMENQTKPPDPRPDAPPEYNSHFLPGPPGTAVPPPTGYPGGLPMGYYSPQQPSTFPLYQPVGGIHPVRYQPGKYPMPNQSVPITWMPGPTPMANCPPGLEYLVQLDNIHVLQHFEPLEMMTCFETNNRYDIKNNSDQMVYIVTEDTDDFTRNAYRTLRPFVLRVTDCMGREIMTMQRPFRCTCCCFCCPSARQELEVQCPPGVTIGFVAEHWNLCRAVYSIQNEKKENVMRVRGPCSTYGCGSDSVFEVKSLDGISNIGSIIRKWNGLLSAMADADHFDIHFPLDLDVKMKAMIFGACFLIDFMYFERSPPQRSR
partner: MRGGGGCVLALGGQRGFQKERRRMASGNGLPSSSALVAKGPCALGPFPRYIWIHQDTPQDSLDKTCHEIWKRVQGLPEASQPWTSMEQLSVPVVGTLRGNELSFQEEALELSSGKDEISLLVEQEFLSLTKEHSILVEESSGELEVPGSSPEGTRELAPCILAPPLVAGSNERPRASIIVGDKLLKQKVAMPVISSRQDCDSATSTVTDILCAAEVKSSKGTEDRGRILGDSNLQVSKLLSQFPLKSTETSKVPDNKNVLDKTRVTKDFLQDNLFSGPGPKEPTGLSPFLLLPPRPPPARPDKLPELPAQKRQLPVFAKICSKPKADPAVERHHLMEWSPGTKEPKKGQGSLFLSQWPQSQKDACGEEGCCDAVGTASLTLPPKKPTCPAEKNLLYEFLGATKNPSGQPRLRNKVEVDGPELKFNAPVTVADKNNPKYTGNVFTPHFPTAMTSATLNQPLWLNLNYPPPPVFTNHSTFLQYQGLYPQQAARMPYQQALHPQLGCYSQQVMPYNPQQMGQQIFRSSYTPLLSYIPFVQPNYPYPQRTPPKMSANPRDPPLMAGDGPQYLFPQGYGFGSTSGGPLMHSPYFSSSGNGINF
B2: Methylmalonyl-CoA epimerase, mitochondrial (Homo sapiens), Q96PE7 (parent)
chain: MARVLKAAAANAVGLFSRLQAPIPTVRASSTSQPLDQVTGSVWNLGRLNHVAIAVPDLEKAAAFYKNILGAQVSEAVPLPEHGVSVVFVNLGNTKMELLHPLGRDSPIAGFLQKNKAGGMHHICIEVDNINAAVMDLKKKKIRSLSEEVKIGAHGKPVIFLHPKDCGGVLVELEQA
B3: Tuftelin-interacting protein 11 (Homo sapiens), Q9UBB9 (parent)
chain: MSLSHLYRDGEGRIDDDDDERENFEITDWDLQNEFNPNRQRHWQTKEEATYGVWAERDSDDERPSFGGKRARDYSAPVNFISAGLKKGAAEEAELEDSDDEEKPVKQDDFPKDFGPRKLKTGGNFKPSQKGFAGGTKSFMDFGSWERHTKGIGQKLLQKMGYVPGRGLGKNAQGIINPIEAKQRKGKGAVGAYGSERTTQSMQDFPVVDSEEEAEEEFQKELSQWRKDPSGSKKKPKYSYKTVEELKAKGRISKKLTAPQKELSQVKVIDMTGREQKVYYSYSQISHKHNVPDDGLPLQSQQLPQSGKEAKAPGFALPELEHNLQLLIDLTEQEIIQNDRQLQYERDMVVNLFHELEKMTEVLDHEERVISNLSKVLEMVEECERRMQPDCSNPLTLDECARIFETLQDKYYEEYRMSDRVDLAVAIVYPLMKEYFKEWDPLKDCTYGTEIISKWKSLLENDQLLSHGGQDLSADAFHRLIWEVWMPFVRNIVTQWQPRNCDPMVDFLDSWVHIIPVWILDNILDQLIFPKLQKEVENWNPLTDTVPIHSWIHPWLPLMQARLEPLYSPIRSKLSSALQKWHPSDSSAKLILQPWKDVFTPGSWEAFMVKNIVPKLGMCLGELVINPHQQHMDAFYWVIDWEGMISVSSLVGLLEKHFFPKWLQVLCSWLSNSPNYEEITKWYLGWKSMFSDQVLAHPSVKDKFNEALDIMNRAVSSNVGAYMQPGARENIAYLTHTERRKDFQYEAMQERREAENMAQRGIGVAASSVPMNFKDLIETKAEEHNIVFMPVIGKRHEGKQLYTFGRIVIYIDRGVVFVQGEKTWVPTSLQSLIDMAK
partner: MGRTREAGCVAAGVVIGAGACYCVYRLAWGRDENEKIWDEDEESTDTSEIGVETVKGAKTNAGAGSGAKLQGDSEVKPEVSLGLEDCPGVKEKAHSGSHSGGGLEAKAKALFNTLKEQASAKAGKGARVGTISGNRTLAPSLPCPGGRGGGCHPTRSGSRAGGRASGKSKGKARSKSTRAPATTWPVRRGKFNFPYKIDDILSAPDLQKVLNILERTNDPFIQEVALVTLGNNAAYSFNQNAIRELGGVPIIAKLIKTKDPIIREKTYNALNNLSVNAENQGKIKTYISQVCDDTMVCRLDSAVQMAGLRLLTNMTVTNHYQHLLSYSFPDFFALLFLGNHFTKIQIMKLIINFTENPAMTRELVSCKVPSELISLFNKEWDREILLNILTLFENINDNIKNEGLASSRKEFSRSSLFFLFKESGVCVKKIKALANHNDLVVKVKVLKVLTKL
B4: Ras and Rab interactor 1 (Homo sapiens), Q13671 (parent)
chain: MESPGESGAGSPGAPSPSSFTTGHLAREKPAQDPLYDVPNASGGQAGGPQRPGRVVSLRERLLLTRPVWLQLQANAAAALHMLRTEPPGTFLVRKSNTRQCQALCMRLPEASGPSFVSSHYILESPGGVSLEGSELMFPDLVQLICAYCHTRDILLLPLQLPRAIHHAATHKELEAISHLGIEFWSSSLNIKAQRGPAGGPVLPQLKARSPQELDQGTGAALCFFNPLFPGDLGPTKREKFKRSFKVRVSTETSSPLSPPAVPPPPVPVLPGAVPSQTERLPPCQLLRRESSVGYRVPAGSGPSLPPMPSLQEVDCGSPSSSEEEGVPGSRGSPATSPHLGRRRPLLRSMSAAFCSLLAPERQVGRAAAALMQDRHTAAGQLVQDLLTQVRAGPEPQELQGIRQALSRARAMLSAELGPEKLLSPKRLEHVLEKSLHCSVLKPLRPILAARLRRRLAADGSLGRLAEGLRLARAQGPGAFGSHLSLPSPVELEQVRQKLLQLLRTYSPSAQVKRLLQACKLLYMALRTQEGEGAGADEFLPLLSLVLAHCDLPELLLEAEYMSELLEPSLLTGEGGYYLTSLSASLALLSGLGQAHTLPLSPVQELRRSLSLWEQRRLPATHCFQHLLRVAYQDPSSGCTSKTLAVPPEASIATLNQLCATKFRVTQPNTFGLFLYKEQGYHRLPPGALAHRLPTTGYLVYRRAEWPETQGAVTEEEGSGQSEARSRGEEQGCQGDGDAGVKASPRDIREQSETTAEGGQGQAQEGPAQPGEPEAEGSRAAEE
partner: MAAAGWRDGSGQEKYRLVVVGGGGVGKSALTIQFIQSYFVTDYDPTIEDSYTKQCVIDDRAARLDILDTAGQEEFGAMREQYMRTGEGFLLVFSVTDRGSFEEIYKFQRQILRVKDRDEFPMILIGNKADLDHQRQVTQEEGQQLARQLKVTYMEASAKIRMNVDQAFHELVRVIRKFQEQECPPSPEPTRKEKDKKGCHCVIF
B5: Four and a half LIM domains protein 2 (Homo sapiens), Q14192 (parent)
chain: MTERFDCHHCNESLFGKKYILREESPYCVVCFETLFANTCEECGKPIGCDCKDLSYKDRHWHEACFHCSQCRNSLVDKPFAAKEDQLLCTDCYSNEYSSKCQECKKTIMPGTRKMEYKGSSWHETCFICHRCQQPIGTKSFIPKDNQNFCVPCYEKQHAMQCVQCKKPITTGGVTYREQPWHKECFVCTACRKQLSGQRFTARDDFAYCLNCFCDLYAKKCAGCTNPISGLGGTKYISFEERQWHNDCFNCKKCSLSLVGRGFLTERDDILCPDCGKDI
partner: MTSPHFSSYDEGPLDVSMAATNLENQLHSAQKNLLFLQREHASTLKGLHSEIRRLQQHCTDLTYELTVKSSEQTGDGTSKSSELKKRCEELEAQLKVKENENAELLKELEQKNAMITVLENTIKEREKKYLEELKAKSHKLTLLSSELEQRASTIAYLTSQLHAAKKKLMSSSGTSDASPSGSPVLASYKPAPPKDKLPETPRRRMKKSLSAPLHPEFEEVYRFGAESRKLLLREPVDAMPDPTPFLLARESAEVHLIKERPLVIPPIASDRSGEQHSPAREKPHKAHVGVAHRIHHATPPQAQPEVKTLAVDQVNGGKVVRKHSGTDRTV
B6: Peroxisomal bifunctional enzyme (Homo sapiens), Q08426 (parent)
chain: MAEYTRLHNALALIRLRNPPVNAISTTLLRDIKEGLQKAVIDHTIKAIVICGAEGKFSAGADIRGFSAPRTFGLTLGHVVDEIQRNEKPVVAAIQGMAFGGGLELALGCHYRIAHAEAQVGLPEVTLGLLPGARGTQLLPRLTGVPAALDLITSGRRILADEALKLGILDKVVNSDPVEEAIRFAQRVSDQPLESRRLCNKPIQSLPNMDSIFSEALLKMRRQHPGCLAQEACVRAVQAAVQYPYEVGIKKEEELFLYLLQSGQARALQYAFFAERKANKWSTPSGASWKTASARPVSSVGVVGLGTMGRGIVISFARARIPVIAVDSDKNQLATANKMITSVLEKEASKMQQSGHPWSGPKPRLTSSVKELGGVDLVIEAVFEEMSLKKQVFAELSAVCKPEAFLCTNTSALDVDEIASSTDRPHLVIGTHFFSPAHVMKLLEVIPSQYSSPTTIATVMNLSKKIKKIGVVVGNCFGFVGNRMLNPYYNQAYFLLEEGSKPEEVDQVLEEFGFKMGPFRVSDLAGLDVGWKSRKGQGLTGPTLLPGTPARKRGNRRYCPIPDVLCELGRFGQKTGKGWYQYDKPLGRIHKPDPWLSKFLSRYRKTHHIEPRTISQDEILERCLYSLINEAFRILGEGIAASPEHIDVVYLHGYGWPRHKGGPMFYASTVGLPTVLEKLQKYYRQNPDIPQLEPSDYLKKLASQGNPPLKEWQSLAGSPSSKL
partner: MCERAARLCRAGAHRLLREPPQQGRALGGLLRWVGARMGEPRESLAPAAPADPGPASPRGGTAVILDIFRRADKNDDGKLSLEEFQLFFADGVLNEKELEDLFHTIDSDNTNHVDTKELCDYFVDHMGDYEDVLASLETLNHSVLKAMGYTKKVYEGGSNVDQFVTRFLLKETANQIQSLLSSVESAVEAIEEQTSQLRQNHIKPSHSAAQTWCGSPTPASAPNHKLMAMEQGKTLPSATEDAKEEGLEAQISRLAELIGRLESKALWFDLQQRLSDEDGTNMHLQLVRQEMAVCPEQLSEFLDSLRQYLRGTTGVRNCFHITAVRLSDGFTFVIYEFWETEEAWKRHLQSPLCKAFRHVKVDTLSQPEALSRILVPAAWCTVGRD
B7: NAD kinase (Homo sapiens), O95544 (parent)
chain: MEMEQEKMTMNKELSPDAAAYCCSACHGDETWSYNHPIRGRAKSRSLSASPALGSTKEFRRTRSLHGPCPVTTFGPKACVLQNPQTIMHIQDPASQRLTWNKSPKSVLVIKKMRDASLLQPFKELCTHLMEENMIVYVEKKVLEDPAIASDESFGAVKKKFCTFREDYDDISNQIDFIICLGGDGTLLYASSLFQGSVPPVMAFHLGSLGFLTPFSFENFQSQVTQVIEGNAAVVLRSRLKVRVVKELRGKKTAVHNGLGENGSQAAGLDMDVGKQAMQYQVLNEVVIDRGPSSYLSNVDVYLDGHLITTVQGDGVIVSTPTGSTAYAAAAGASMIHPNVPAIMITPICPHSLSFRPIVVPAGVELKIMLSPEARNTAWVSFDGRKRQEIRHGDSISITTSCYPLPSICVRDPVSDWFESLAQCLHWNVRKKQAHFEEEEEEEEEG
partner: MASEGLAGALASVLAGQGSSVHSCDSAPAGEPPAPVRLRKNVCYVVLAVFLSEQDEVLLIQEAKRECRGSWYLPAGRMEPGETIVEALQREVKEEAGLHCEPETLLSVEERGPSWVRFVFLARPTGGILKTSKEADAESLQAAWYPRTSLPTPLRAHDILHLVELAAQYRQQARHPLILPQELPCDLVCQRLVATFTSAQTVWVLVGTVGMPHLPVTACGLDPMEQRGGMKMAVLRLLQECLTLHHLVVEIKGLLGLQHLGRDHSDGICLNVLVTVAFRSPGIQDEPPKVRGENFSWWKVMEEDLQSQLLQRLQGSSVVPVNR

Variants of: B1
Settings: with ca094_human C1orf94, Q6P1W5
In the case of A107S, the “effect of a mutation on the interaction” value is reported as “with no effect”.

Variants of: B2
Settings: with atrap_human AGTRAP
A76V was tested, and the “effect of a mutation on the interaction” value was “with no effect”. With R143H the “effect of a mutation on the interaction” value was “with no effect”.

Variants of: B3
Settings: with armx1_human ARMCX1, Q9P291
For R8Q, the “effect of a mutation on the interaction” value was “with no effect”. For S688L, the “effect of a mutation on the interaction” value was “with no effect”.

Variants of: B4
Settings: with rras2_human RRAS2, P62070
For R238Q, the “effect of a mutation on the interaction” value was “with no effect”.

Variants of: B5
Settings: with ccd92_human CCDC92, Q53HC0
For N95K, the “effect of a mutation on the interaction” value was “with no effect”. With A37S the “effect of a mutation on the interaction” value was “with no effect”.

Variants of: B6
Settings: with neca2_human NECAB2, Q7Z6G3
For I646T, the “effect of a mutation on the interaction” value was “disrupting interaction strength”. For S703F, the “effect of a mutation on the interaction” value was “with no effect”. In the case of L715S, the “effect of a mutation on the interaction” value is reported as “disrupting interaction strength”. For R483Q, the “effect of a mutation on the interaction” value was “disrupting interaction strength”.

Variants of: B7
Settings: with nud18_human NUDT18, Q6ZVK8
For R249W, the “effect of a mutation on the interaction” value was “with no effect”.
